Source: article PMC7318626

Target: Neonatal Fc receptor (FcRn), soluble form (UniProt P55899)
Assay: mass photometry (single-molecule counting of species by mass)
Conditions: not stated (in the SI)

Chain of UniProt P55899 (P55899 whole entry): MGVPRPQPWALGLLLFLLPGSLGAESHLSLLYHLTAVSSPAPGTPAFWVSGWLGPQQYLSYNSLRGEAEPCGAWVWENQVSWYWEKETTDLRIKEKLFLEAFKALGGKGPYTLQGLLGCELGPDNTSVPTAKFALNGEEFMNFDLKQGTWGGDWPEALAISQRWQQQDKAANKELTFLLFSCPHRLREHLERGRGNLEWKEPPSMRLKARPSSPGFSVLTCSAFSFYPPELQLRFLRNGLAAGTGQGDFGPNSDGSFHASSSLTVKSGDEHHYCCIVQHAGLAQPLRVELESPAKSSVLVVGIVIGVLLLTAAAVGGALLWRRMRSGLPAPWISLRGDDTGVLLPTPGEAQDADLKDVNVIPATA

Substance	Kd (pH 5, pH 5, 5.5, 6 and 7) [nM]	Kd (pH 5.5, pH 5, 5.5, 6 and 7) [nM]	Kd (pH 6, pH 5, 5.5, 6 and 7) [nM]	Kd (pH 7, pH 5, 5.5, 6 and 7) [nM]	Kd (pH 5, pH 5, 5.5 and 6) [nM]	Kd (pH 5.5, pH 5, 5.5 and 6) [nM]	Kd (pH 6, pH 5, 5.5 and 6) [nM]
Trastuzumab (Herceptin), IgG1 monoclonal antibody, called 'IgG' in the article	59 ± 8	225 ± 20	>200	>200	–	–	–
Trastuzumab (Herceptin), IgG1 monoclonal antibody, called 'IgG' in the article + Neonatal Fc receptor (FcRn), soluble form	6.6 ± 0.6	3.9 ± 1.5	–	–	–	–	–
Neonatal Fc receptor (FcRn), soluble form	44 ± 9	171 ± 19	–	–	31 ± 11	>200	>200
